The numbers were not newly measured in publication doi:10.1101/2024.09.16.613101, which cites them from elsewhere.

One data set has as its target Glu28 (UniProt position 54, GYQLHEDGETV). The data set can be described thus: NMR. As to conditions: native (folded) state, according to the title of ref 70; ligand state not stated.
A further data set has as its target Glu58 (UniProt position 84, SSPYYEWPILS). The data set can be described thus: NMR. The conditions noted are these: native (folded) state, according to the title of ref 70; ligand state not stated.
A further data set addresses His27 (UniProt position 53, AGYQLHEDGET). The data set can be described thus: NMR. As to conditions: native (folded) state, according to the title of ref 70; ligand state not stated.
In the next data set the target is His40 (UniProt position 66, SNSYPHKYNNY). Put plainly: NMR. The conditions noted are these: native (folded) state, according to the title of ref 70; ligand state not stated.
The target in the next data set is His92 (UniProt position 118, AGVITHTGASG). The data set can be described thus: NMR. As to conditions: native (folded) state, according to the title of ref 70; ligand state not stated.
The next data set deals with Cys46 (UniProt position 47, DFTFVCPTELG).
The target in the next data set is His57 (UniProt position 57, VVTAAHCGVTT). As to conditions: not stated (the structure used for prediction is described as the apoenzyme).

Regarding “ribonuclease T1 (Aspergillus oryzae (not stated in the article; inferred))”, the pKa with Glu28 is recorded as 5.61; with Glu58 it was 3.96; with His27, 7.57; with His40 it was 7.44; with His92 it was 7.31.
On to “peroxiredoxin AhpC (alkyl hydroperoxide reductase subunit C) (bacterial (species not stated in the article))”, for which the pKa with Cys46 is given as 5.94.
For chymotrypsin, the pKa in the data set with His57 is 7.5.

The term pKa denotes the negative logarithm of the acid dissociation constant.
